In patent US20260167699A1 (Chugai, published 2026):
Positions count from the first letter of the chain named.

B1: GpH7-A5/GpH7-B3 variant S337_09D/GpL16-k0 (antibody, human IgG1, kappa)
heavy 1: not shown
heavy 2: not shown
light: DIVMTQSPLSLPVTPGEPASISCQASESLVHSNRNTYLHWYLQKPGQSPQLLIYKVSNRFSGVPDRFSGSGSGTDFTLKISRVEAEDVGVYYCSQNTHVPPTFGQGTKVEIERTVAAPSVFIFPPSDEQLKSGTASVVCLLNNFYPREAKVQWKVDNALQSGNSQESVTEQDSKDSTYSLSSTLTLSKADYEKHKVYACEVTHQGLSSPVTKSFNRGEC
notes: heterodimerized IgG1 (He Ab), mutation in one H chain only; also called He Ab
B2: GpH7-A5/GpH7-B3 variant T335_13S/GpL16-k0 (antibody, human IgG1, kappa)
heavy 1: not shown
heavy 2: not shown
light: B1 light
notes: as for B1
B3: GpH7-A5/GpH7-B3 variant T335_04F/GpL16-k0 (antibody, human IgG1, kappa)
heavy 1: not shown
heavy 2: not shown
light: B1 light
notes: as for B1
B4: GpH7-A5/GpH7-B3 variant T335_03V/GpL16-k0 (antibody, human IgG1, kappa)
heavy 1: not shown
heavy 2: not shown
light: B1 light
notes: as for B1
B5: GpH7-A5/GpH7-B3 variant T335_20W/GpL16-k0 (antibody, human IgG1, kappa)
heavy 1: not shown
heavy 2: not shown
light: B1 light
notes: as for B1
B6: GpH7-A5/GpH7-B3 variant T335_15Y/GpL16-k0 (antibody, human IgG1, kappa)
heavy 1: not shown
heavy 2: not shown
light: B1 light
notes: as for B1
B7: GpH7-A5/GpH7-B3 variant T335_09D/GpL16-k0 (antibody, human IgG1, kappa)
heavy 1: not shown
heavy 2: not shown
light: B1 light
notes: as for B1
B8: GpH7-A5/GpH7-B3 variant T335_02A/GpL16-k0 (antibody, human IgG1, kappa)
heavy 1: not shown
heavy 2: not shown
light: B1 light
notes: as for B1
B9: GpH7-A5/GpH7-B3 variant T335_01G/GpL16-k0 (antibody, human IgG1, kappa)
heavy 1: not shown
heavy 2: not shown
light: B1 light
notes: as for B1
B10: GpH7-A5/GpH7-B3 variant T335_12R/GpL16-k0 (antibody, human IgG1, kappa)
heavy 1: not shown
heavy 2: not shown
light: B1 light
notes: as for B1
B11: GpH7-A5/GpH7-B3 variant T335_05P/GpL16-k0 (antibody, human IgG1, kappa)
heavy 1: not shown
heavy 2: not shown
light: B1 light
notes: as for B1
B12: GpH7-A5/GpH7-B3 variant T335_08L/GpL16-k0 (antibody, human IgG1, kappa)
heavy 1: not shown
heavy 2: not shown
light: B1 light
notes: as for B1
B13: GpH7-A5/GpH7-B3 variant T335_07I/GpL16-k0 (antibody, human IgG1, kappa)
heavy 1: not shown
heavy 2: not shown
light: B1 light
notes: as for B1
B14: GpH7-A5/GpH7-B3 variant T335_10E/GpL16-k0 (antibody, human IgG1, kappa)
heavy 1: not shown
heavy 2: not shown
light: B1 light
notes: as for B1
B15: GpH7-A5/GpH7-B3 variant T335_11K/GpL16-k0 (antibody, human IgG1, kappa)
heavy 1: not shown
heavy 2: not shown
light: B1 light
notes: as for B1
B16: GpH7-A5/GpH7-B3 variant T335_19Q/GpL16-k0 (antibody, human IgG1, kappa)
heavy 1: not shown
heavy 2: not shown
light: B1 light
notes: as for B1
B17: GpH7-A5/GpH7-B3 variant T335_18N/GpL16-k0 (antibody, human IgG1, kappa)
heavy 1: not shown
heavy 2: not shown
light: B1 light
notes: as for B1
B18: GpH7-A5/GpH7-B3 variant T335_06M/GpL16-k0 (antibody, human IgG1, kappa)
heavy 1: not shown
heavy 2: not shown
light: B1 light
notes: as for B1
B19: GpH7-A5/GpH7-B3 variant S337_12R/GpL16-k0 (antibody, human IgG1, kappa)
heavy 1: not shown
heavy 2: not shown
light: B1 light
notes: as for B1
B20: GpH7-A5/GpH7-B3 variant T335_16H/GpL16-k0 (antibody, human IgG1, kappa)
heavy 1: not shown
heavy 2: not shown
light: B1 light
notes: as for B1
B21: GpH7-A5/GpH7-B3 variant S337_18N/GpL16-k0 (antibody, human IgG1, kappa)
heavy 1: not shown
heavy 2: not shown
light: B1 light
notes: as for B1
B22: GpH7-A5/GpH7-B3 variant S337_10E/GpL16-k0 (antibody, human IgG1, kappa)
heavy 1: not shown
heavy 2: not shown
light: B1 light
notes: as for B1

molecular target: T1, FcγRIIa(H) extracellular domain with C-terminal His tag (human, UniProt P12318 34-217); experiment: SPR; % of GpH7-A5/GpH7-B3/GpL16-k0
T1 construct: extracellular domain; H131 allotype; also called 2aH; CD32
T1 sequence: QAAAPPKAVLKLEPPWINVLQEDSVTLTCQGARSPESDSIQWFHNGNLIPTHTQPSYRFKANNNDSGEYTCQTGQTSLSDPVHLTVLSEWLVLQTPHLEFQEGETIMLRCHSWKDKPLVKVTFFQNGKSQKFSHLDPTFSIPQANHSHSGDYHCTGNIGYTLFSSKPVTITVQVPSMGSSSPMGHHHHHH

Row | Binder | He/Con 2aH [%]
1 | B1 | 114
2 | B2 | 110
3 | B3 | 107
4 | B4 | 107
5 | B5 | 109
6 | B6 | 110
7 | B7 | 111
8 | B8 | 104
9 | B9 | 107
10 | B10 | 103
11 | B11 | 112
12 | B12 | 109
13 | B13 | 112
14 | B14 | 112
15 | B15 | 103
16 | B16 | 107
17 | B17 | 107
18 | B18 | 106
19 | B19 | 105
20 | B20 | 109
21 | B21 | 106
22 | B22 | 109

molecular target: T2, FcγRIIIa extracellular domain with C-terminal His tag (human, UniProt P08637 17-208); experiment: SPR; % of GpH7-A5/GpH7-B3/GpL16-k0
T2 construct: extracellular domain; also called 3a; CD16
T2 sequence (P08637 other isoform, or with tags, fused parts or gaps): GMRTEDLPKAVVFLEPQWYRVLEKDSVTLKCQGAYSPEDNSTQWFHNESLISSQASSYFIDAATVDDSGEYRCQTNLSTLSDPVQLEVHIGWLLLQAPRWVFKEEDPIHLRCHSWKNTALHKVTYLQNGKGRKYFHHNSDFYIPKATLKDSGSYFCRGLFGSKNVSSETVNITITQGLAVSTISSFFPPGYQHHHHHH

Row | Binder | He/Con 3a [%]
23 | B1 | 102
24 | B2 | 100
25 | B3 | 91.7
26 | B4 | 96.3
27 | B5 | 97.3
28 | B6 | 99.7
29 | B7 | 103
30 | B8 | 90.9
31 | B9 | 95.1
32 | B10 | 93.1
33 | B11 | 100
34 | B12 | 97.8
35 | B13 | 102
36 | B14 | 102
37 | B15 | 91.7
38 | B16 | 97.7
39 | B17 | 94.4
40 | B18 | 97
41 | B19 | 92.7
42 | B20 | 99.3
43 | B21 | 96.9
44 | B22 | 97.8

molecular target: T3, FcγRIa extracellular domain with C-terminal His tag (human, UniProt P12314 16-292); experiment: SPR; % of GpH7-A5/GpH7-B3/GpL16-k0
T3 construct: extracellular domain; also called 1a; CD64
T3 sequence (P12314 other isoform, or with tags, fused parts or gaps): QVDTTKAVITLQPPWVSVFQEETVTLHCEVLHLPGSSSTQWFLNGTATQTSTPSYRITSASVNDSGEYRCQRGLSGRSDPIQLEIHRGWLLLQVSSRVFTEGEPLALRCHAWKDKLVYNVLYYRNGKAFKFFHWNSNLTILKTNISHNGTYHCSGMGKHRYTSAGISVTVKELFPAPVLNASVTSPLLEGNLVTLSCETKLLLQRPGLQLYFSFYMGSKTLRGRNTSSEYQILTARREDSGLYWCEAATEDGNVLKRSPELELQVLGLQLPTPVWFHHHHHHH

Row | Binder | He/Con 1a [%]
45 | B1 | 102
46 | B2 | 108
47 | B3 | 108
48 | B4 | 108
49 | B5 | 110
50 | B6 | 111
51 | B7 | 111
52 | B8 | 107
53 | B9 | 108
54 | B10 | 116
55 | B11 | 110
56 | B12 | 118
57 | B13 | 113
58 | B14 | 112
59 | B15 | 114
60 | B16 | 108
61 | B17 | 109
62 | B18 | 110
63 | B19 | 103
64 | B20 | 109
65 | B21 | 102
66 | B22 | 103

molecular target: T4, FcγRIIb extracellular domain with C-terminal His tag (human, UniProt P31994 43-217); experiment: SPR; % of GpH7-A5/GpH7-B3/GpL16-k0
T4 construct: extracellular domain; also called 2b; CD32
T4 sequence: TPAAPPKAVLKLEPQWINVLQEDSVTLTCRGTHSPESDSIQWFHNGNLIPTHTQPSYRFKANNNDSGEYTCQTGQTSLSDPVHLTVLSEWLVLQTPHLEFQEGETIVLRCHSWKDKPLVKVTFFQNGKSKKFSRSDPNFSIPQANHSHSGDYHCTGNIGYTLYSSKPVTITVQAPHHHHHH

Row | Binder | He/Con 2b [%]
67 | B1 | 124
68 | B2 | 111
69 | B3 | 112
70 | B4 | 109
71 | B5 | 114
72 | B6 | 118
73 | B7 | 118
74 | B8 | 103
75 | B9 | 106
76 | B10 | 100
77 | B11 | 109
78 | B12 | 114
79 | B13 | 116
80 | B14 | 118
81 | B15 | 99.4
82 | B16 | 109
83 | B17 | 111
84 | B18 | 109
85 | B19 | 108
86 | B20 | 112
87 | B21 | 113
88 | B22 | 117

molecular target: T5, FcγRIIa(R) extracellular domain with C-terminal His tag (human, UniProt P12318 34-217); experiment: SPR; % of GpH7-A5/GpH7-B3/GpL16-k0
T5 construct: extracellular domain; R131 allotype; also called 2aR; CD32
T5 sequence: T1 sequence with H134R

Row | Binder | He/Con 2aR [%]
89 | B1 | 117
90 | B2 | 116
91 | B3 | 113
92 | B4 | 112
93 | B5 | 115
94 | B6 | 117
95 | B7 | 116
96 | B8 | 108
97 | B9 | 110
98 | B10 | 106
99 | B11 | 109
100 | B12 | 114
101 | B13 | 115
102 | B14 | 117
103 | B15 | 105
104 | B16 | 112
105 | B17 | 112
106 | B18 | 110
107 | B19 | 109
108 | B20 | 114
109 | B21 | 108
110 | B22 | 114
